# B1: Bleomycin hydrolase (Homo sapiens), Q13867 (parent)
# chain: MSSSGLNSEKVAALIQKLNSDPQFVLAQNVGTTHDLLDICLKRATVQRAQHVFQHAVPQEGKPITNQKSSGRCWIFSCLNVMRLPFMKKLNIEEFEFSQSYLFFWDKVERCYFFLSAFVDTAQRKEPEDGRLVQFLLMNPANDGGQWDMLVNIVEKYGVIPKKCFPESYTTEATRRMNDILNHKMREFCIRLRNLVHSGATKGEISATQDVMMEEIFRVVCICLGNPPETFTWEYRDKDKNYQKIGPITPLEFYREHVKPLFNMEDKICLVNDPRPQHKYNKLYTVEYLSNMVGGRKTLYNNQPIDFLKKMVAASIKDGEAVWFGCDVGKHFNSKLGLSDMNLYDHELVFGVSLKNMNKAERLTFGESLMTHAMTFTAVSEKDDQDGAFTKWRVENSWGEDHGHKGYLCMTDEWFSEYVYEVVVDRKHVPEEVLAVLEQEPIILPAWDPMGALAE
# B2: Lipopolysaccharide-induced tumor necrosis factor-alpha factor (Homo sapiens), Q99732 (parent)
# chain: MSVPGPYQAATGPSSAPSAPPSYEETVAVNSYYPTPPAPMPGPTTGLVTGPDGKGMNPPSYYTQPAPIPNNNPITVQTVYVQHPITFLDRPIQMCCPSCNKMIVSQLSYNAGALTWLSCGSLCLLGCIAGCCFIPFCVDALQDVDHYCPNCRALLGTYKRL
# B3: Protein-associating with the carboxyl-terminal domain of ezrin (Homo sapiens), Q8IZE3 (parent)
# chain: MGSENSALKSYTLREPPFTLPSGLAVYPAVLQDGKFASVFVYKRENEDKVNKAAKHLKTLRHPCLLRFLSCTVEADGIHLVTERVQPLEVALETLSSAEVCAGIYDILLALIFLHDRGHLTHNNVCLSSVFVSEDGHWKLGGMETVCKVSQATPEFLRSIQSIRDPASIPPEEMSPEFTTLPECHGHARDAFSFGTLVESLLTILNEQVSADVLSSFQQTLHSTLLNPIPKCRPALCTLLSHDFFRNDFLEVVNFLKSLTLKSEEEKTEFFKFLLDRVSCLSEELIASRLVPLLLNQLVFAEPVAVKSFLPYLLGPKKDHAQGETPCLLSPALFQSRVIPVLLQLFEVHEEHVRMVLLSHIEAYVEHFTQEQLKKVILPQVLLGLRDTSDSIVAITLHSLAVLVSLLGPEVVVGGERTKIFKRTAPSFTKNTDLSLEDSPMCVVCSHHSQISPILENPFSSIFPKCFFSGSTPINSKKHIQRDYYNTLLQTGDPFSQPIKFPINGLSDVKNTSEDSENFPSSSKKSEEWPDWSEPEEPENQTVNIQIWPREPCDDVKSQCTTLDVEESSWDDCEPSSLDTKVNPGGGITATKPVTSGEQKPIPALLSLTEESMPWKSSLPQKISLVQRGDDADQIEPPKVSSQERPLKVPSELGLGEEFTIQVKKKPVKDPEMDWFADMIPEIKPSAAFLILPELRTEMVPKKDDVSPVMQFSSKFAAAEITEGEAEGWEEEGELNWEDNNW
# partner: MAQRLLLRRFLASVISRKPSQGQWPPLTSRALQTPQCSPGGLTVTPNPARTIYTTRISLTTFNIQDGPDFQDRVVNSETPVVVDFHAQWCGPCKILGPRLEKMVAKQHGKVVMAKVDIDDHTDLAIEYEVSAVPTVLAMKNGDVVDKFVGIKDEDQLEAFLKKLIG
# B4: Ribosome-recycling factor, mitochondrial (Homo sapiens), Q96E11 (parent)
# chain: MALGLKCFRMVHPTFRNYLAASIRPVSEVTLKTVHERQHGHRQYMAYSAVPVRHFATKKAKAKGKGQSQTRVNINAALVEDIINLEEVNEEMKSVIEALKDNFNKTLNIRTSPGSLDKIAVVTADGKLALNQISQISMKSPQLILVNMASFPECTAAAIKAIRESGMNLNPEVEGTLIRVPIPQVTREHREMLVKLAKQNTNKAKDSLRKVRTNSMNKLKKSKDTVSEDTIRLIEKQISQMADDTVAELDRHLAVKTKELLG
# partner: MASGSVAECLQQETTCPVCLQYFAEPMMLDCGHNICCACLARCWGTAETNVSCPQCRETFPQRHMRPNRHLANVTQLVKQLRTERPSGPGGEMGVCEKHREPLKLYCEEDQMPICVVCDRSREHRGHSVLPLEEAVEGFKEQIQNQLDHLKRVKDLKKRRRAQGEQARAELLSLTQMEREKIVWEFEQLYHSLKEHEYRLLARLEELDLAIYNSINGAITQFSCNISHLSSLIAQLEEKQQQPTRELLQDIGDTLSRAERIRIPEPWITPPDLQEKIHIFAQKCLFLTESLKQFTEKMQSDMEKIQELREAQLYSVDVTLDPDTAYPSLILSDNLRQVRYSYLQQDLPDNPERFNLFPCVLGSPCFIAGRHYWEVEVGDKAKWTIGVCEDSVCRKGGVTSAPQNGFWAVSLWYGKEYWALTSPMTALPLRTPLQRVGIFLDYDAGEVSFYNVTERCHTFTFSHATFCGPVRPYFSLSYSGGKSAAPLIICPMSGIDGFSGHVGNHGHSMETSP
# B5: G patch domain and ankyrin repeat-containing protein 1 (Homo sapiens), O95872 (parent)
# chain: MSRPLLITFTPATDPSDLWKDGQQQPQPEKPESTLDGAAARAFYEALIGDESSAPDSQRSQTEPARERKRKKRRIMKAPAAEAVAEGASGRHGQGRSLEAEDKMTHRILRAAQEGDLPELRRLLEPHEAGGAGGNINARDAFWWTPLMCAARAGQGAAVSYLLGRGAAWVGVCELSGRDAAQLAEEAGFPEVARMVRESHGETRSPENRSPTPSLQYCENCDTHFQDSNHRTSTAHLLSLSQGPQPPNLPLGVPISSPGFKLLLRGGWEPGMGLGPRGEGRANPIPTVLKRDQEGLGYRSAPQPRVTHFPAWDTRAVAGRERPPRVATLSWREERRREEKDRAWERDLRTYMNLEF
# B6: Gem-associated protein 6 (Homo sapiens), Q8WXD5 (parent)
# chain: MSEWMKKGPLEWQDYIYKEVRVTASEKNEYKGWVLTTDPVSANIVLVNFLEDGSMSVTGIMGHAVQTVETMNEGDHRVREKLMHLFTSGDCKAYSPEDLEERKNSLKKWLEKNHIPITEQGDAPRTLCVAGVLTIDPPYGPENCSSSNEIILSRVQDLIEGHLTASQ
# B7: G-patch domain and KOW motifs-containing protein (Homo sapiens), Q92917 (parent)
# chain: MADSKEGVLPLTAASTAPISFGFTRTSARRRLADSGDGAGPSPEEKDFLKTVEGRELQSVKPQEAPKELVIPLIQNGHRRQPPARPPGPSTDTGALADGVVSQAVKELIAESKKSLEERENAGVDPTLAIPMIQKGCTPSGEGADSEPRAETVPEEANYEAVPVEAYGLAMLRGMGWKPGEGIGRTFNQVVKPRVNSLRPKGLGLGANLTEAQALTPTGPSRMPRPDEEQEKDKEDQPQGLVPGGAVVVLSGPHRGLYGKVEGLDPDNVRAMVRLAVGSRVVTVSEYYLRPVSQQEFDKNTLDLRQQNGTASSRKTLWNQELYIQQDNSERKRKHLPDRQDGPAAKSEKAAPRSQHWLHRDLRVRFVDNMYKGGQYYNTKMIIEDVLSPDTCVCRTDEGRVLEGLREDMLETLVPKAEGDRVMVVLGPQTGRVGHLLSRDRARSRALVQLPRENQVVELHYDAICQYMGPSDTDDD
# B8: Ribosome quality control complex subunit TCF25 (Homo sapiens), Q9BQ70 (parent)
# chain: MSRRALRRLRGEQRGQEPLGPGALHFDLRDDDDAEEEGPKRELGVRRPGGAGKEGVRVNNRFELINIDDLEDDPVVNGERSGCALTDAVAPGNKGRGQRGNTESKTDGDDTETVPSEQSHASGKLRKKKKKQKNKKSSTGEASENGLEDIDRILERIEDSTGLNRPGPAPLSSRKHVLYVEHRHLNPDTELKRYFGARAILGEQRPRQRQRVYPKCTWLTTPKSTWPRYSKPGLSMRLLESKKGLSFFAFEHSEEYQQAQHKFLVAVESMEPNNIVVLLQTSPYHVDSLLQLSDACRFQEDQEMARDLVERALYSMECAFHPLFSLTSGACRLDYRRPENRSFYLALYKQMSFLEKRGCPRTALEYCKLILSLEPDEDPLCMLLLIDHLALRARNYEYLIRLFQEWEAHRNLSQLPNFAFSVPLAYFLLSQQTDLPECEQSSARQKASLLIQQALTMFPGVLLPLLESCSVRPDASVSSHRFFGPNAEISQPPALSQLVNLYLGRSHFLWKEPATMSWLEENVHEVLQAVDAGDPAVEACENRRKVLYQRAPRNIHRHVILSEIKEAVAALPPDVTTQSVMGFDPLPPSDTIYSYVRPERLSPISHGNTIALFFRSLLPNYTMEGERPEEGVAGGLNRNQGLNRLMLAVRDMMANFHLNDLEAPHEDDAEGEGEWD
# B9: Coiled-coil domain-containing protein 185 (Homo sapiens), Q8N715 (parent)
# chain: MAGFSHFSQPPYRDLWEPPRPGGERESTQRLGGQRSGADSTACSRAGTPGAESEAGACWLHPHCSFTPRPRRRGCSDSLRGSRSLSDVARRPLERSRKHRPRSRRLEDAWGETGTKPRPAWQPQTQLPPQRPQPCPHYPLAQGDSPPPCPGGAGTPLSGTFRVEKAQGGDQWAVPLGRHLGRWSPSSVPSERSSVPSQKFKRHSACVCAQKRDSSDQVESLASRDSQPLASSKEMRSPHTQVLKSKLEEVVVSSQDQQIVALVLTRLKKAQRIRELQQQAAKAWEELKRSDQKVQMTLERERRLLLRQSQEQWQEKEQRKTLQSPEQRGLRRDSQRKNVPPGESRWKEQPEDQESPRQEKLEKARAQAEHRKQCQVRRLREQEKMLRNLREQHSLQLQRRLVEACRKRHLHAVEGQKKVQDTNLSSLINYQARKVLMDCQAKAEELLRQLSLEQSFQRSQEIHQGLRKERQRELREKAQKEEEQLQQARWRAGESEEQRKMRKRILVELADEKIRQARSHVHKTTRDKVQHLRELNHLREKNHHILKLKAEKEEKCHIEGIKEAIKKKEQRVQHISQGKDPNFQEFQKLPQASRREERAPPNSSLDQMVLEAQLRACQQNRGY
# B10: Paraneoplastic antigen-like protein 5 (Homo sapiens), Q96PV4 (parent)
# chain: MALTLLEDWCKGMDMDPRKALLIVGIPMECSEVEIQDTVKAGLQPLCAYRVLGRMFRREDNAKAVFIELADTVNYTTLPSHIPGKGGSWEVVVKPRNPDDEFLSRLNYFLKDEGRSMTDVARALGCCSLPAESLDAEVMPQVRSPPLEPPKESMWYRKLKVFSGTASPSPGEETFEDWLEQVTEIMPIWQVSEVEKRRRLLESLRGPALSIMRVLQANNDSITVEQCLDALKQIFGDKEDFRASQFRFLQTSPKIGEKVSTFLLRLEPLLQKAVHKSPLSVRSTDMIRLKHLLARVAMTPALRGKLELLDQRGCPPNFLELMKLIRDEEEWENTEAVMKNKEKPSGRGRGASGRQARAEASVSAPQATVQARSFSDSSPQTIQGGLPPLVKRRRLLGSESTRGEDHGQATYPKAENQTPGREGPQAAGEELGNEAGAGAMSHPKPWET
# partner: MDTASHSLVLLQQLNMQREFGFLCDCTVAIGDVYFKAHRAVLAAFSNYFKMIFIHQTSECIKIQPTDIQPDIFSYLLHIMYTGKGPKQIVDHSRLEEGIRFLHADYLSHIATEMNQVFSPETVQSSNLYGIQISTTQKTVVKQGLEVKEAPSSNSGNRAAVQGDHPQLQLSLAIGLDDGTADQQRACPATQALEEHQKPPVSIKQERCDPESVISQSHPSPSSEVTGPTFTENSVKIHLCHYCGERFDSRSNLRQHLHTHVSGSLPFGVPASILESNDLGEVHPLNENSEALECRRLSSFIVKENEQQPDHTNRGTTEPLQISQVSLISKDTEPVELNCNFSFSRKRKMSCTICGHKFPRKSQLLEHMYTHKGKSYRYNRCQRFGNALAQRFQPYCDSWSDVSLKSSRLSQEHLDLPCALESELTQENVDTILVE
# Variants of: B1
# Conditions: with nud12_human NUDT12, Q9BQG2
# Sequence of nud12_human NUDT12, Q9BQG2 (Q9BQG2 whole entry): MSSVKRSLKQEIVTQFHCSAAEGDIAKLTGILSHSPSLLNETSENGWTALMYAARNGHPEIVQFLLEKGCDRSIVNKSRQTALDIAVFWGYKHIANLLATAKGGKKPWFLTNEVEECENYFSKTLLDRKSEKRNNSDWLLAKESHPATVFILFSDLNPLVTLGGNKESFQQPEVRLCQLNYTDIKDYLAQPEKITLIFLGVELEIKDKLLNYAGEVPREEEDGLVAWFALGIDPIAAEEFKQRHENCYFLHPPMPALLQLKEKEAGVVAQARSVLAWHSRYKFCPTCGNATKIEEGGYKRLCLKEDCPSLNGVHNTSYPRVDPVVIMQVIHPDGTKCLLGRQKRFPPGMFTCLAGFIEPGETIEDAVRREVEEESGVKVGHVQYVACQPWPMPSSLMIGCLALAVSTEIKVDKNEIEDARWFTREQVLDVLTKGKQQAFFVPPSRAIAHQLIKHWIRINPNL
row,effect of a mutation on the interaction,Variant
1,with no effect,I443V

# Variants of: B1
# Conditions: with ntaq1_human NTAQ1, Q96HA8
row,effect of a mutation on the interaction,Variant
1,with no effect,E381K

# Variants of: B2
# Conditions: with bag3_human BAG3, O95817
# Sequence of bag3_human BAG3, O95817 (O95817 whole entry): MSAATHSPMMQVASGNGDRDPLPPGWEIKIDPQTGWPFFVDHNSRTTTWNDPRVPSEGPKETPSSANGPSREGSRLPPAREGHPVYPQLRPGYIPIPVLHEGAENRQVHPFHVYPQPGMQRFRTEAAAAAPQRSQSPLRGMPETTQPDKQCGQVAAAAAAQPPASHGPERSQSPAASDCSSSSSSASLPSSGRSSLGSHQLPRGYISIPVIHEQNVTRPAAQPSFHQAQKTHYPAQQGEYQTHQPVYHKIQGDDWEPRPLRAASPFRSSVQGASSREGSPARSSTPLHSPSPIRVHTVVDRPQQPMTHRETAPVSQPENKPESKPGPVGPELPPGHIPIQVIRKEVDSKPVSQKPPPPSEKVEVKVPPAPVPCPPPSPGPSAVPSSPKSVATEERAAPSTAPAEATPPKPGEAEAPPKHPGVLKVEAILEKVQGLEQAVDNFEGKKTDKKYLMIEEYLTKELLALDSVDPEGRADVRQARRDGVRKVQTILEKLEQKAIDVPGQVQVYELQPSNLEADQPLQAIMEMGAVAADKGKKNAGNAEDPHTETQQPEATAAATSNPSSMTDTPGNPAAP
row,effect of a mutation on the interaction,Variant
1,with no effect,C137Y
2,with no effect,I92V

# Variants of: B2
# Conditions: with reep6_human REEP6, Q96HR9
# Sequence of reep6_human REEP6, Q96HR9 (Q96HR9 whole entry): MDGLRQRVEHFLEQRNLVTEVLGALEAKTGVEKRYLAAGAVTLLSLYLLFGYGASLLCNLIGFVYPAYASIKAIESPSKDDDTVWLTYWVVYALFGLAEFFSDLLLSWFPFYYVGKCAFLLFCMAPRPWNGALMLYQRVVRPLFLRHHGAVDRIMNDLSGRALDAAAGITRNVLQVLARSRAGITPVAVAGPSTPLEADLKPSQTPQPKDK
row,effect of a mutation on the interaction,Variant
1,disrupting interaction strength,C137Y

# Variants of: B2
# Conditions: with stam2_human STAM2, O75886
row,effect of a mutation on the interaction,Variant
1,with no effect,C137Y

# Variants of: B2
# Conditions: with hgs_human HGS
row,effect of a mutation on the interaction,Variant
1,with no effect,C137Y

# Variants of: B3
# Conditions: with thiom_human TXN2, Q99757
row,effect of a mutation on the interaction,Variant
1,with no effect,L625F
2,with no effect,Q621R

# Variants of: B4
# Conditions: with tri27_human TRIM27, P14373
row,effect of a mutation on the interaction,Variant
1,with no effect,M216V

# Variants of: B5
# Conditions: with pnma1_human PNMA1, Q8ND90
# Sequence of pnma1_human PNMA1, Q8ND90 (Q8ND90 whole entry): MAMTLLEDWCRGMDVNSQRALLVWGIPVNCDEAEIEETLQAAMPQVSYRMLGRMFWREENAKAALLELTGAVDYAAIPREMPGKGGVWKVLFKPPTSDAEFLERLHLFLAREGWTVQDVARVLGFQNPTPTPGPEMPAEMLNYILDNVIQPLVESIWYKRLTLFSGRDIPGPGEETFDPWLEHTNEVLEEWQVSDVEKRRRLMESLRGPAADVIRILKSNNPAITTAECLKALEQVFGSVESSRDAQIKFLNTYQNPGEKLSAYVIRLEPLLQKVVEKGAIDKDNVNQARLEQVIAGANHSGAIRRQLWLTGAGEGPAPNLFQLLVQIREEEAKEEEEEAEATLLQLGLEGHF
row,effect of a mutation on the interaction,Variant
1,with no effect,R41L

# Variants of: B5
# Conditions: with tri23_human TRIM23, P36406
# Target sequence in this assay (P36406 whole entry): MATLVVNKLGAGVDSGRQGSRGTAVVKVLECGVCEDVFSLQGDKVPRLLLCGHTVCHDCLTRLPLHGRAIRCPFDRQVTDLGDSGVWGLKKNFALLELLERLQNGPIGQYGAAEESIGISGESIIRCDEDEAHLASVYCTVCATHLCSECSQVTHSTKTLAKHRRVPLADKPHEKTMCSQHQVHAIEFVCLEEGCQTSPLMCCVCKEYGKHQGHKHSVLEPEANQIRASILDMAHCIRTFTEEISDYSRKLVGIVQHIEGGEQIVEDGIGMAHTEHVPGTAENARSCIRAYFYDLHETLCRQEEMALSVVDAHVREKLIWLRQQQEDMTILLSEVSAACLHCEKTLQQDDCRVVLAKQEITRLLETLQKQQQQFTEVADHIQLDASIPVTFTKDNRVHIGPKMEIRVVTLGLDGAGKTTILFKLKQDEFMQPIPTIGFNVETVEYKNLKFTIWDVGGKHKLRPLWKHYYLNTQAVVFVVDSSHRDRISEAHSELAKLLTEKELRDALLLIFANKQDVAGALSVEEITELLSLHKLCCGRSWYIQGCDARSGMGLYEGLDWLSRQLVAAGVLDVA
row,effect of a mutation on the interaction,Variant
1,with no effect,D56E

# Variants of: B6
# Conditions: with gemi7_human GEMIN7, Q9H840
# Sequence of gemi7_human GEMIN7, Q9H840 (Q9H840 whole entry): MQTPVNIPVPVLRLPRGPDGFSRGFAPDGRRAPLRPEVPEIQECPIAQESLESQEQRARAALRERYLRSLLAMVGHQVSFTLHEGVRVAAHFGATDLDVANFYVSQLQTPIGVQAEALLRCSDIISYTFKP
row,effect of a mutation on the interaction,Variant
1,with no effect,G8S
2,with no effect,S25N

# Variants of: B7
# Conditions: with tri23_human TRIM23, P36406
# Target sequence in this assay (P36406 whole entry): as the sequence (P36406 whole entry) above
row,effect of a mutation on the interaction,Variant
1,with no effect,V393A
2,with no effect,A129T

# Variants of: B7
# Conditions: with traf2_human TRAF2, Q12933
# Sequence of traf2_human TRAF2, Q12933 (Q12933 whole entry): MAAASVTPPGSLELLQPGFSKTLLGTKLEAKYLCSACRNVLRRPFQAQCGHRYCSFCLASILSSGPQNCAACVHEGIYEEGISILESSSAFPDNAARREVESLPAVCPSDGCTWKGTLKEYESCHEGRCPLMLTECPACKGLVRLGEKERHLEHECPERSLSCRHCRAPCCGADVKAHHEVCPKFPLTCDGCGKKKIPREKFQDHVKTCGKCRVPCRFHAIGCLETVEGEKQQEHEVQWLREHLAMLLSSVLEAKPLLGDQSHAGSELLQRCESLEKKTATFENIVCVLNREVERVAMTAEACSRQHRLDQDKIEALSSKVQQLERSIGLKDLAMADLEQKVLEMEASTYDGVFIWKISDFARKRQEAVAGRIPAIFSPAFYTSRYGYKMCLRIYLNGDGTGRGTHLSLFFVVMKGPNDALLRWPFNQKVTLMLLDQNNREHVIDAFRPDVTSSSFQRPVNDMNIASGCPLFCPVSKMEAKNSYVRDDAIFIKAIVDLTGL
row,effect of a mutation on the interaction,Variant
1,with no effect,V393A
2,with no effect,A129T

# Variants of: B8
# Conditions: with sat1_human SAT1, P21673
# Sequence of sat1_human SAT1, P21673 (P21673 whole entry): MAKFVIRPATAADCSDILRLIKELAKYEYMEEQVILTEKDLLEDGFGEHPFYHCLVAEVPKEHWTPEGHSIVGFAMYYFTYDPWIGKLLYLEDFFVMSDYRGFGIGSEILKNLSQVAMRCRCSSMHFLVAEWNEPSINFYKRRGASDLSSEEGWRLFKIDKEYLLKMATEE
row,effect of a mutation on the interaction,Variant
1,with no effect,V526A

# Variants of: B9
# Conditions: with KRT15, P19012
# Sequence of KRT15, P19012 (P19012 whole entry): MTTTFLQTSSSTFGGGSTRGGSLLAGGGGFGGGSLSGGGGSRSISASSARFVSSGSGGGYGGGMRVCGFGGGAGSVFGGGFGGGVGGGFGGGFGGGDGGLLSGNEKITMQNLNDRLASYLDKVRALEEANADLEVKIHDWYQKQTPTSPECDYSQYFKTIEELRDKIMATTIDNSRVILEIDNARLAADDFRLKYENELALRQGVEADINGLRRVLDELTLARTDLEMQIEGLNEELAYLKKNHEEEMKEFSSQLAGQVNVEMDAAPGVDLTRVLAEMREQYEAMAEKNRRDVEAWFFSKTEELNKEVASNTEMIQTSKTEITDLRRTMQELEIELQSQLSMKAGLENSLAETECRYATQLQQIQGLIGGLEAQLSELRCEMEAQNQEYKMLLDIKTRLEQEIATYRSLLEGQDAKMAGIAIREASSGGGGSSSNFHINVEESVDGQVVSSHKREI
row,effect of a mutation on the interaction,Variant
1,with no effect,S603G

# Variants of: B10
# Conditions: with zbt25_human ZBTB25, P24278
row,effect of a mutation on the interaction,Variant
1,with no effect,V274M
2,with no effect,T261A
3,disrupting interaction strength,L21Q
4,with no effect,R312Q

# — IntAct's records for PubMed 31515488
